From US20060153883A1 (Chugai, published 2006)

Target: T1, HA tag-carrying soluble HM1.24 antigen sHM164 (HM1.24 antigen extracellular region in which the C terminal … (human, UniProt Q10589 49-163, limits assumed))
T1 construct: also called HA-sHM164
T1 sequence: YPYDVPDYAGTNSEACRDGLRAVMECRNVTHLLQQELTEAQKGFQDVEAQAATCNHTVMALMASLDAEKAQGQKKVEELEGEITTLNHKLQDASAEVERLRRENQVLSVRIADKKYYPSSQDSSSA
Experiment: sandwich ELISA: anti-HA antibody coated, CHO culture supernatant, humanized anti-HM1.24 antibody as detector, AP-labeled anti-human IgG
Protocol: The soluble human HM1.24 ELISA described below was conducted as follows. In order to select a highly productive strain, the amount of the soluble protein produced was compared by a sandwich ELISA using anti-HA antibody (Boehringer Mannheim) and a humanized anti-HM1.24 antibody (K. Ono et al., The 20th Japan Molecular Biology Annual Meeting, General Lecture 3-501-P-478), whereby selecting the strain. Since the antigen concentration was not known because a purified antigen was not obtained, the number of the cells upon the ELISA was taken into account when comparing the concentration.
An anti-HA antibody (Boehringer Mannheim) was adjusted at 1 μg/ml in a Coating Buffer (C.B.: 0.1 mol/L sodium bicarbonate buffer, pH 9.6, 0.2% sodium azide) was added to a plane bottom 96-well plate (Nunc) in the volume of 100 μl/well, and coated overnight at 4° C.

B1: reconstructed human anti-HM1.24 antibody (humanized anti-HM1.24 antibody), light chain version a and heavy chain version s described in WO98/14580 (antibody, V domains shown)
VH: QVQLVQSGAEVKKPGASVKVSCKASGYTFTPYWMQWVRQAPGQGLEWMGSIFPGDGDTRYSQKFKGRVTITADKSTSTAYMELSSLRSEDTAVYYCARGLRRGGYYFDYWGQGTTVTVSS
VL: DIQMTQSPSSLSASVGDRVTITCKASQDVNTAVAWYQQKPGKAPKLLIYSASNRYTGVPSRFSGSGSGTDFTFTISSLQPEDIATYYCQQHYSTPFTFGQGTKVEIK
notes: Plasmid names point to a human gamma 1 heavy and a kappa light constant region; It was detected with an anti-human IgG antibody in the ELISA
binding result: binds
